In US9850520B2, “Electrochemical detection of proteases using AC voltammetry on nanoelectrode arrays” (Kansas State University Research Foundation, priority 2013, dated 2017):

Target: T1, H2N—(CH2)4—CO-(SEQ ID NO:1)-NH—CH2-Fc (Homo sapiens, UniProt Q99538)
T1 construct: purchased R&D Systems Inc. (Minneapolis, Minn.)
T1 sequence (Q99538 18-323 limits assumed): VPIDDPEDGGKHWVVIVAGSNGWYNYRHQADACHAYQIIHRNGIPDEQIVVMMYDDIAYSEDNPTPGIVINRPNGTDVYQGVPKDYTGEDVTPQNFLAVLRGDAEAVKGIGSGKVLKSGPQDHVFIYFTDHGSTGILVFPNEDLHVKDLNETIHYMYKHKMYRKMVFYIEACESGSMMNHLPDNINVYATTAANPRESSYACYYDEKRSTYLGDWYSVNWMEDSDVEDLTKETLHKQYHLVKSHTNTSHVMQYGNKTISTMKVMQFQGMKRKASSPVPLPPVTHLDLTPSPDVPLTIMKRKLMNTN
Assay: ACV proteolysis kinetics of legumain on Fc-tetrapeptide immobilized on VACNF NEA
Type: biochemical
Description: In the protease study, a tetrapeptide H2N—(CH2)4—CO-(SEQ ID NO:1)-NH—CH2-Fc is covalently attached to the exposed tip of a VACNF NEA as shown in FIG. 2. Fc provides reliable redox signals at 0.25 V vs. Ag/AgCl (3M KCl) in ACV measurements. As shown in later sections, the unique structure of VACNF NEA enables the enhanced ACV signal at over 1750 Hz AC frequency. Upon being supplied with legumain (a cancer related protease), the peptide is cleaved at the site between Asn and Leu. As a result, the Fc moiety is released from the electrode surface into bulk solution, causing the redox signal to decrease. The kinetic of the enzymatic reaction at the electrode surface can be monitored by continuously repeated ACV measurements. The advantage of this method is that the Fc label provides a characteristic redox signal which can be easily separated from the nonFaradaic background and other redox signals. However, the mechanism becomes complicated for enzymes requiring much longer peptide sequences for specific recognition. The Fc signal involves electron transfer between Fc molecule and the electrode surface, which is highly sensitive to the Fc surface distance. This may vary in a large range depending on the molecular packing of the long peptides on the electrode surface.
For protease analysis, the tetrapeptide H2N—(CH2)4—CO-(SEQ ID NO:1)-NHCH2-Fc was covalently linked to the VACNF NEA by forming amide bond facilitated by EDC and sulfo-NHS. In order to stabilize the electronic signal, the electrode surface was reacted with 6-amino-1-hexanol to fill the remaining —COOH sites. […]
The electrochemical measurements were performed in a TEFLON cell with a total volume of 250 μL for legumain experiments and 120 μL for kinase/phosphatase experiments. […] The average AC current was measured as the potential was swept from −0.05 to +0.65 V at 10 mV/s scan rate using a staircase waveform. […]
The change in peak current (ip,acv) during continuously repeated ACV measurements with Fc-linked tetrapeptide immobilized on a VACNF NEA was measured. […]

[1] = Example 4, [E0]=80.1 nM legumain

time constant of exponential decay (Example 1, [E0]=773 nM legumain, f 1750 Hz, V0 150 mV): 1076 s | slope of reaction rate vi vs Γsurf [1]: 0.00063 s⁻¹ | time constant of exponential decay [1]: 1101 s
B1: legumain: Recombinant human legumain/asparaginyl endopeptidase (molecular weight 49 kDa) from R&D Systems (protein, UniProt Q99538 18-323, looked up)
Legumain: VPIDDPEDGGKHWVVIVAGSNGWYNYRHQADACHAYQIIHRNGIPDEQIVVMMYDDIAYSEDNPTPGIVINRPNGTDVYQGVPKDYTGEDVTPQNFLAVLRGDAEAVKGIGSGKVLKSGPQDHVFIYFTDHGSTGILVFPNEDLHVKDLNETIHYMYKHKMYRKMVFYIEACESGSMMNHLPDNINVYATTAANPRESSYACYYDEKRSTYLGDWYSVNWMEDSDVEDLTKETLHKQYHLVKSHTNTSHVMQYGNKTISTMKVMQFQGMKRKASSPVPLPPVTHLDLTPSPDVPLTIMKRKLMNTN
